The results in this text go back to article PMC3751551.

Assay [1] concerns the target Rluc-BST2 (UniProt Q10589). Put plainly: BRET assay. The conditions noted are these: HEK293T cells; parent: est. 1.4; read off a plot. On the technique in general: BRET reads energy transfer from a luciferase to a nearby fluorophore.
The target of assay [2] is T1, Vm-EYFP, P05923.
T1 chain: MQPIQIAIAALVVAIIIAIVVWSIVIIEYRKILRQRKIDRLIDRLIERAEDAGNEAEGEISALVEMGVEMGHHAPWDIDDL
Put plainly: BRET assay. The conditions noted are these: chain shown with the change, HEK293T cells, parent: est. 1.6, read off a plot.

[3] abbreviates: forty-eight hours post-transfection.

Regarding Vm-EYFP (from UniProt P05923) A14V, in assay [1], the response was found to be 1.2.

Take “Vm-EYFP (from UniProt P05923) A14V; I15A; I16A”: the response in assay [1] is 0.76. On the same count and under the same terms, as for Vm-EYFP (from UniProt P05923) A18V, the figure is 0.52; as for Vm-EYFP (from UniProt P05923) E28A, 1.1. On the same count and under the same terms, then “Vm-EYFP (from UniProt P05923) I5A; V6A; A7V”, with 0.98. On to “Vm-EYFP (from UniProt P05923) I8A; V9A; A10V”, for which the response in assay [1] turned out to be 1.2. For Vm-EYFP (from UniProt P05923) I15A, in assay [1], the response came to 1.2. In the case of Vm-EYFP (from UniProt P05923) I16A, the response in assay [1] turned out to be 1.2. On the same count and under the same terms, then Vm-EYFP (from UniProt P05923) I17A, with 1.4; and “Vm-EYFP (from UniProt P05923) I17A; A18V; I19A”, with 0.58; and Vm-EYFP (from UniProt P05923) I19A, with 1.2. On the same count and under the same terms, then Vm-EYFP (from UniProt P05923) I26A, with 1.3.

“Vm-EYFP (from UniProt P05923) I26A; I27A; E28A”: in assay [1], the response stood at 0.85. In the case of Vm-EYFP (from UniProt P05923) I27A, the response in assay [1] worked out at 1.3.

As for Vm-EYFP (from UniProt P05923) L11A, the response in assay [1] came to 0.93. “Vm-EYFP (from UniProt P05923) L11A; V12A; V13A”: the response in assay [1] was 0.9.

Regarding “Vm-EYFP (from UniProt P05923) S23A; I24A; V25A”, the response in assay [1] worked out at 1.1. On to Vm-EYFP (from UniProt P05923) V12A, for which the response in assay [1] amounted to 1.3. For Vm-EYFP (from UniProt P05923) V13A, the response in assay [1] came to 1.3. Take Vm-EYFP (from UniProt P05923) V20A: in assay [1], the response was determined as 1.3. In the case of “Vm-EYFP (from UniProt P05923) V20A; V21A; W22A”, the response in assay [1] is 0.41.

Vm-EYFP (from UniProt P05923) V21A: in assay [1], the response was 1.1.

With Vm-EYFP (from UniProt P05923) W22A, in assay [1], the response amounted to 0.69.

B1: Rluc-BST2, Q10589 P40A; L41A; I42A (protein)
chain: MASTSYDYCRVPMEDGDKRCKLLLGIGILVLLIIVILGVAAAIFTIKANSEACRDGLRAVMECRNVTHLLQQELTEAQKGFQDVEAQAATCNHTVMALMASLDAEKAQGQKKVEELEGEITTLNHKLQDASAEVERLRRENQVLSVRIADKKYYPSSQDSS
For the molecule B1, in assay [2] (setting [3]), the response stood at 0.82.

B2: Rluc-BST2, Q10589 I36A (protein)
chain: MASTSYDYCRVPMEDGDKRCKLLLGIGILVLLIIVALGVPLIIFTIKANSEACRDGLRAVMECRNVTHLLQQELTEAQKGFQDVEAQAATCNHTVMALMASLDAEKAQGQKKVEELEGEITTLNHKLQDASAEVERLRRENQVLSVRIADKKYYPSSQDSS
Turning to B2, the response in assay [2] worked out at 1.5.

B3: Rluc-BST2, Q10589 L31A; L32A; I33A (protein)
chain: MASTSYDYCRVPMEDGDKRCKLLLGIGILVAAAIVILGVPLIIFTIKANSEACRDGLRAVMECRNVTHLLQQELTEAQKGFQDVEAQAATCNHTVMALMASLDAEKAQGQKKVEELEGEITTLNHKLQDASAEVERLRRENQVLSVRIADKKYYPSSQDSS
Take B3: the response in assay [2] (setting [3]) came out at 1.3.

B4: Rluc-BST2, Q10589 L37A; G38A; V39A (protein)
chain: MASTSYDYCRVPMEDGDKRCKLLLGIGILVLLIIVIAAAPLIIFTIKANSEACRDGLRAVMECRNVTHLLQQELTEAQKGFQDVEAQAATCNHTVMALMASLDAEKAQGQKKVEELEGEITTLNHKLQDASAEVERLRRENQVLSVRIADKKYYPSSQDSS
Turning to B4, the response in assay [2] (setting [3]) is 0.95.

B5: Rluc-BST2, Q10589 I43A; F44A; T45A (protein)
chain: MASTSYDYCRVPMEDGDKRCKLLLGIGILVLLIIVILGVPLIAAAIKANSEACRDGLRAVMECRNVTHLLQQELTEAQKGFQDVEAQAATCNHTVMALMASLDAEKAQGQKKVEELEGEITTLNHKLQDASAEVERLRRENQVLSVRIADKKYYPSSQDSS
Regarding B5, the response in assay [2] (setting [3]) came out at 1.6.

B6: Rluc-BST2, Q10589 I28A; L29A; V30A (protein)
chain: MASTSYDYCRVPMEDGDKRCKLLLGIGAAALLIIVILGVPLIIFTIKANSEACRDGLRAVMECRNVTHLLQQELTEAQKGFQDVEAQAATCNHTVMALMASLDAEKAQGQKKVEELEGEITTLNHKLQDASAEVERLRRENQVLSVRIADKKYYPSSQDSS
On to B6, for which the response in assay [2] (setting [3]) was 1.4.

B7: Rluc-BST2, Q10589 P40A (protein)
chain: MASTSYDYCRVPMEDGDKRCKLLLGIGILVLLIIVILGVALIIFTIKANSEACRDGLRAVMECRNVTHLLQQELTEAQKGFQDVEAQAATCNHTVMALMASLDAEKAQGQKKVEELEGEITTLNHKLQDASAEVERLRRENQVLSVRIADKKYYPSSQDSS
For the molecule B7, the response in assay [2] was 1.1.

B8: Rluc-BST2, Q10589 G25A; I26A; G27A (protein)
chain: MASTSYDYCRVPMEDGDKRCKLLLAAAILVLLIIVILGVPLIIFTIKANSEACRDGLRAVMECRNVTHLLQQELTEAQKGFQDVEAQAATCNHTVMALMASLDAEKAQGQKKVEELEGEITTLNHKLQDASAEVERLRRENQVLSVRIADKKYYPSSQDSS
Consider B8, for which the response in assay [2] (setting [3]) stood at 1.7.

B9: Rluc-BST2, Q10589 I34A (protein)
chain: MASTSYDYCRVPMEDGDKRCKLLLGIGILVLLIAVILGVPLIIFTIKANSEACRDGLRAVMECRNVTHLLQQELTEAQKGFQDVEAQAATCNHTVMALMASLDAEKAQGQKKVEELEGEITTLNHKLQDASAEVERLRRENQVLSVRIADKKYYPSSQDSS
Regarding B9, the response in assay [2] worked out at 1.1.

B10: Rluc-BST2, Q10589 L37A (protein)
chain: MASTSYDYCRVPMEDGDKRCKLLLGIGILVLLIIVIAGVPLIIFTIKANSEACRDGLRAVMECRNVTHLLQQELTEAQKGFQDVEAQAATCNHTVMALMASLDAEKAQGQKKVEELEGEITTLNHKLQDASAEVERLRRENQVLSVRIADKKYYPSSQDSS
On to B10, for which, in assay [2], the response was determined as 0.77.

B11: Rluc-BST2, Q10589 V39A (protein)
chain: MASTSYDYCRVPMEDGDKRCKLLLGIGILVLLIIVILGAPLIIFTIKANSEACRDGLRAVMECRNVTHLLQQELTEAQKGFQDVEAQAATCNHTVMALMASLDAEKAQGQKKVEELEGEITTLNHKLQDASAEVERLRRENQVLSVRIADKKYYPSSQDSS
Turning to B11, the response in assay [2] was 1.6.

B12: Rluc-BST2, Q10589 I34A; V35A; I36A (protein)
chain: MASTSYDYCRVPMEDGDKRCKLLLGIGILVLLIAAALGVPLIIFTIKANSEACRDGLRAVMECRNVTHLLQQELTEAQKGFQDVEAQAATCNHTVMALMASLDAEKAQGQKKVEELEGEITTLNHKLQDASAEVERLRRENQVLSVRIADKKYYPSSQDSS
Regarding B12, the response in assay [2] (setting [3]) turned out to be 0.88.

B13: Rluc-BST2, Q10589 G38A (protein)
chain: MASTSYDYCRVPMEDGDKRCKLLLGIGILVLLIIVILAVPLIIFTIKANSEACRDGLRAVMECRNVTHLLQQELTEAQKGFQDVEAQAATCNHTVMALMASLDAEKAQGQKKVEELEGEITTLNHKLQDASAEVERLRRENQVLSVRIADKKYYPSSQDSS
B13: the response in assay [2] was found to be 1.5.

B14: Rluc-BST2, Q10589 I42A (protein)
chain: MASTSYDYCRVPMEDGDKRCKLLLGIGILVLLIIVILGVPLAIFTIKANSEACRDGLRAVMECRNVTHLLQQELTEAQKGFQDVEAQAATCNHTVMALMASLDAEKAQGQKKVEELEGEITTLNHKLQDASAEVERLRRENQVLSVRIADKKYYPSSQDSS
For B14, in assay [2], the response was determined as 1.4.

B15: Rluc-BST2, Q10589 L41A (protein)
chain: MASTSYDYCRVPMEDGDKRCKLLLGIGILVLLIIVILGVPAIIFTIKANSEACRDGLRAVMECRNVTHLLQQELTEAQKGFQDVEAQAATCNHTVMALMASLDAEKAQGQKKVEELEGEITTLNHKLQDASAEVERLRRENQVLSVRIADKKYYPSSQDSS
In the case of B15, in assay [2], the response was 0.93.

B16: Rluc-BST2, Q10589 V35A (protein)
chain: MASTSYDYCRVPMEDGDKRCKLLLGIGILVLLIIAILGVPLIIFTIKANSEACRDGLRAVMECRNVTHLLQQELTEAQKGFQDVEAQAATCNHTVMALMASLDAEKAQGQKKVEELEGEITTLNHKLQDASAEVERLRRENQVLSVRIADKKYYPSSQDSS
As for B16, in assay [2], the response was determined as 1.5.

B17: Rluc-BST2, Q10589 I46A; K47A (protein)
chain: MASTSYDYCRVPMEDGDKRCKLLLGIGILVLLIIVILGVPLIIFTAAANSEACRDGLRAVMECRNVTHLLQQELTEAQKGFQDVEAQAATCNHTVMALMASLDAEKAQGQKKVEELEGEITTLNHKLQDASAEVERLRRENQVLSVRIADKKYYPSSQDSS
As for B17, the response in assay [2] (setting [3]) was found to be 1.6.

B18: Rluc-BST2, Q10589 L22A; L23A; L24A (protein)
chain: MASTSYDYCRVPMEDGDKRCKAAAGIGILVLLIIVILGVPLIIFTIKANSEACRDGLRAVMECRNVTHLLQQELTEAQKGFQDVEAQAATCNHTVMALMASLDAEKAQGQKKVEELEGEITTLNHKLQDASAEVERLRRENQVLSVRIADKKYYPSSQDSS
For the molecule B18, in assay [2] (setting [3]), the response stood at 1.3.
